# Results: IntAct's records for PubMed 11641419
# B1: Prolactin-releasing peptide receptor (Homo sapiens), P49683 (parent)
# chain: MASSTTRGPRVSDLFSGLPPAVTTPANQSAEASAGNGSVAGADAPAVTPFQSLQLVHQLKGLIVLLYSVVVVVGLVGNCLLVLVIARVRRLHNVTNFLIGNLALSDVLMCTACVPLTLAYAFEPRGWVFGGGLCHLVFFLQPVTVYVSVFTLTTIAVDRYVVLVHPLRRRISLRLSAYAVLAIWALSAVLALPAAVHTYHVELKPHDVRLCEEFWGSQERQRQLYAWGLLLVTYLLPLLVILLSYVRVSVKLRNRVVPGCVTQSQADWDRARRRRTFCLLVVIVVVFAVCWLPLHVFNLLRDLDPHAIDPYAFGLVQLLCHWLAMSSACYNPFIYAWLHDSFREELRKLLVAWPRKIAPHGQNMTVSVVI
# Variants of: B1
# Details: with grip1_human GRIP1, Q9Y3R0
# Chain of grip1_human GRIP1, Q9Y3R0 (Q9Y3R0 whole entry): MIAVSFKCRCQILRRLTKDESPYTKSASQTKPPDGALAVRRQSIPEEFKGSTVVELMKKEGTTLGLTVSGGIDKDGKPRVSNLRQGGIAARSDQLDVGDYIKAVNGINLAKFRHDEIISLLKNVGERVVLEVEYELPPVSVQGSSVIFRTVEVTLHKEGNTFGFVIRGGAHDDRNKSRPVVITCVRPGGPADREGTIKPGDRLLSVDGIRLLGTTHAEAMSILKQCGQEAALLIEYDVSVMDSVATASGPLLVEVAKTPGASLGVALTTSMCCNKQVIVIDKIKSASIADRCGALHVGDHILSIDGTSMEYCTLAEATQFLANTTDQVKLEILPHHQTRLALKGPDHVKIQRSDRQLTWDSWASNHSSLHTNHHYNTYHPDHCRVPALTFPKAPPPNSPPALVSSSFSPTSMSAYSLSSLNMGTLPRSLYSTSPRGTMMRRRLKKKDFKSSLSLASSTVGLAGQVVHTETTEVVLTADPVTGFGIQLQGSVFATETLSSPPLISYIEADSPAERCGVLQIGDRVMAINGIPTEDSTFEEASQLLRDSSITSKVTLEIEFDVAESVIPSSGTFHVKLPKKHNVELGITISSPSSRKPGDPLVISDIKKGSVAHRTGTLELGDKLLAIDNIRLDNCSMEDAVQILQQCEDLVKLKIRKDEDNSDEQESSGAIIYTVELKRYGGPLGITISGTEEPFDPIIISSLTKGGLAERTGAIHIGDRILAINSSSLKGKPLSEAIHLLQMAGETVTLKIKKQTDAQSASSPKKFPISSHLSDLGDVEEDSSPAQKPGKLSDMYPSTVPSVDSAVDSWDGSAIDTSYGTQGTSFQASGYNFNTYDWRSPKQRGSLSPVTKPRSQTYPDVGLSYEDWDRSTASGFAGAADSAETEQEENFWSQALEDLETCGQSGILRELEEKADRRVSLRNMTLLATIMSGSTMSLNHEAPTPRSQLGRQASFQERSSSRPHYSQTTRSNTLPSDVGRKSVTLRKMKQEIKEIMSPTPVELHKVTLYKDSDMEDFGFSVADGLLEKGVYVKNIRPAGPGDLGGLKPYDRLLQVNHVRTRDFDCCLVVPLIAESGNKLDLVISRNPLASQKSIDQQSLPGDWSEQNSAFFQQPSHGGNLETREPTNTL
row,effect of a mutation on the interaction,Variant
1,disrupting interaction,S367A
2,disrupting interaction,V368A
3,disrupting interaction,I370A
